Reference: patent US20220106400A1 (Bristol-Myers Squibb, published 2022)
Several values for one entry are separate records, joined by “and”; a condition that tells them apart may be missing. Identical values can stand only once. Like-named read-outs stand apart in the source and are kept apart here.

Assays:
[1] = target: T1, full length extracellular domain of human-CD73 with C-terminal polyhistidine tag (residues 26-546) (human, UniProt P21589 26-546); experiment: SEC, 1:1 molar mix 5.5 uM each
T1 construct: range 26-546; also called hCD73-his; CD73-his
T1 sequence (looked up): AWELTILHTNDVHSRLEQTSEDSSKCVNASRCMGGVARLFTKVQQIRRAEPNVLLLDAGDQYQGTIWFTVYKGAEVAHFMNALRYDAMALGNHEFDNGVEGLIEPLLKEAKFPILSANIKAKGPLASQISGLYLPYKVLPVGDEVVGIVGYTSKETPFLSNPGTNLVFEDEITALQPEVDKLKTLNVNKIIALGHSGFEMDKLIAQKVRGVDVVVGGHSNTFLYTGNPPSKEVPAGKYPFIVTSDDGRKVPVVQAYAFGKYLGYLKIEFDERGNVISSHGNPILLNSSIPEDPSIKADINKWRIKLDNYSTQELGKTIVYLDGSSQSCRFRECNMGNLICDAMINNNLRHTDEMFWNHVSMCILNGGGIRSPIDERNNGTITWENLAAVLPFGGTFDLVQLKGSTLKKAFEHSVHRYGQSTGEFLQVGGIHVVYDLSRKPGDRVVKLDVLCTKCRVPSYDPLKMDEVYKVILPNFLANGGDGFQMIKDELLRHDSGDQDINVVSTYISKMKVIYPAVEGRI
Protocol: The oligomeric state of CD73/antibody complexes were examined by size-exclusion chromatography coupled to an in-line multi-angle light scattering detector (SEC-MALS). Isocratic separations were performed on a Shodex PROTEIN KW-803 column connected to an Prominence Shimadzu UFLC in buffer containing 200 mM K₂HPO₄, 150 mM NaCl, pH 6.8, containing 0.02% Na azide (0.1 μm filtered) running at 0.5 mL/min. Samples were injected onto the column using a SIL-20AC Prominence Shimadzu autosampler, and data were obtained from three online detectors connected in series: a Prominence SPD-20AD diode array UV/vis spectrophotometer followed by a Wyatt miniDAWN™ TREOS Multi-Angle Light Scattering Detector then a Wyatt Optilab T-rEX Refractive Index Detector. Data were collected and analyzed using Astra (Wyatt) and Labsolutions (Shimadzu) software.
CD73.4 antibodies having the heavy chain constant regions set forth in Table 14 were also tested for formation of high molecular weight complexes by SEC-MALS and DLS experiments, as described in Example 3.

[2] = target: T2, human CD73 on human tumor cell lines (human, UniProt P21589 27-549); experiment: cell-based or functional assay
T2 sequence (looked up): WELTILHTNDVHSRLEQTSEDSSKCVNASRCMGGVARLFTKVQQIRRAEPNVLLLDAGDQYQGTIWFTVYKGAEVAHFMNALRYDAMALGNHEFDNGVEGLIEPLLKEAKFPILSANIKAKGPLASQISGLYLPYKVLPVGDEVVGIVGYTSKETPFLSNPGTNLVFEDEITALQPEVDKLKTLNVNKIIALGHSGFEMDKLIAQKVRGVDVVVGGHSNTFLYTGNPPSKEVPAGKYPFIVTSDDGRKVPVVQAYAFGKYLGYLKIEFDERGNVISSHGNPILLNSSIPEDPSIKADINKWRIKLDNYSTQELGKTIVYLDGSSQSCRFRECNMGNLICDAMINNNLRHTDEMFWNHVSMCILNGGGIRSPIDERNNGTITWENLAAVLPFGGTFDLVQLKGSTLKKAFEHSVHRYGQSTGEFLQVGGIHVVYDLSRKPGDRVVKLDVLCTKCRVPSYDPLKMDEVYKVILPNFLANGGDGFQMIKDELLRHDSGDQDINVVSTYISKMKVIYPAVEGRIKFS

[3] = target: T3, N-terminal domain of hCD73 (residues 26-336 of human CD73), his-tagged (human, UniProt P21589 26-336); experiment: SPR Biacore T100, mAb captured on protein A, N-hCD73-his analyte, 25 C; separate experiment
T3 construct: also called N-hCD73; N-hCD73-his
T3 sequence (looked up): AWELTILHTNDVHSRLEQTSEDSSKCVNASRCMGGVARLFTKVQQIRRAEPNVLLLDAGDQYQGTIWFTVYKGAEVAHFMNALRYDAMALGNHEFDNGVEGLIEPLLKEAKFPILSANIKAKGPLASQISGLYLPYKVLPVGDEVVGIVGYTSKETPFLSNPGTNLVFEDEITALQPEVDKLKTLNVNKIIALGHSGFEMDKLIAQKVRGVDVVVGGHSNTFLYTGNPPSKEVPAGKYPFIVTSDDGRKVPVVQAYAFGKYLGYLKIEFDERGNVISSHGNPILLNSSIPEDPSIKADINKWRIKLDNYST
Protocol: (§1) The affinity of the antibodies for human CD73 was measured to determine whether the change of the constant region affects them. The affinities were determined by Surface Plasmon Resonance (SPR) as follows. […] For these experiments, protein A (Pierce) was immobilized to a density of 3000-4000 RU on flow cells 1-4 of a CM5 sensor chip (GE Healthcare) using standard ethyl(dimethylaminopropyl) carbodiimide (EDC)/N-hydroxysuccinimide (NHS) chemistry, with ethanolamine blocking, in a running buffer of 0.01 M HEPES pH 7.4, 0.15 M NaCl, 3 mM EDTA, 0.005% v/v tween 20. Kinetic experiments were performed by first capturing antibodies (5-10 ug/ml) on the protein A surfaces using a 30 s contact time at 10 ul/min, with binding of 600, 200, 66.7, 22.2, 7.4, and 2.5 nM N-hCD73-his, using a 180 s association time and 360 s dissociation time at a flow rate of 30 ul/min. The running buffer for the kinetic experiments was 10 mM sodium phosphate, 130 mM sodium chloride, 0.05% tween 20, pH 7.1. The surfaces were regenerated after each cycle using two 30 s pulses of 10 mM glycine pH 1.5 at a flow rate of 30 μl/min. Sensogram data was double-referenced and then fitted to a 1:1 Langmuir model using Biacore T100 evaluation software v2.0.4, to determine the association rate constant (ka), the dissociation rate constant (kd), and the equilibrium dissociation constant (KD).

[4] = target: T2, human CD73 on human tumor cell lines; experiment: cell-based or functional assay; remark: listed apart in the source
[5] = target: T3, N-terminal domain of hCD73 (residues …); experiment: SPR Biacore T100, mAb captured on protein A, N-hCD73-his analyte, 25 C
Protocol: as §1

[6] = target: T2, human CD73 on human tumor cell lines; experiment: cell-based or functional assay; remark: listed apart in the source
[7] = target: T2, human CD73 on human tumor cell lines; experiment: cell-based or functional assay; remark: listed apart in the source

B1: CD73.4-IgG2.3-plusTHT (antibody)
heavy: QVQLVESGGGVVQPGRSLRLSCAASGFTFSNYGMHWVRQAPGKGLEWVAVILYDGSNKYYPDSVKGRFTISRDNSKNTLYLQMNSLRAEDTAVYYCARGGSSWYPDSFDIWGQGTMVTVSSASTKGPSVFPLAPCSRSTSESTAALGCLVKDYFPEPVTVSWNSGALTSGVHTFPAVLQSSGLYSLSSVVTVPSSNFGTQTYTCNVDHKPSNTKVDKTVERKSCVETHTCPPCPAPPVAGPSVFLFPPKPKDTLMISRTPEVTCVVVDVSHEDPEVQFNWYVDGVEVHNAKTKPREEQFNSTFRVVSVLTVVHQDWLNGKEYKCKVSNKGLPAPIEKTISKTKGQPREPQVYTLPPSREEMTKNQVSLTCLVKGFYPSDIAVEWESNGQPENNYKTTPPMLDSDGSFFLYSKLTVDKSRWQQGNVFSCSVMHEALHNHYTQKSLSLSPGK
light: not shown
notes: also called mAb-CD73.4-IgG2.3-plusTHT; CD73.4-Vh-hHC-IgG2.3-plusTHT
- UV % Peak1 <12.9 min [1]: 30.6%
- UV % Peak4 16.7-19.3 min (free mAb) [1]: 33.7%
- UV % Peak5 >19.3 min [1]: 3.2%
- T1/2 internalization, Calu6 [2]: 21.3 min
- T1/2 internalization, NCI-H292 [2]: 17.6 min
- Ymax internalization, Calu6 [2]: 81.2%
- Ymax internalization, NCI-H292 [2]: 91.4%

B2: CD73.10-IgG2-C219S (antibody)
heavy: QVQLVESGGGVVQPGRSLRLSCAASGFTFSNYGMHWVRQAPGKGLEWVAVIWYDESNKYYPDSVKGRFTISRDNSKNTLYLQMNSLRAEDTAVYYCARGGSSWYPDSFDIWGQGTMVTVSSASTKGPSVFPLAPCSRSTSESTAALGCLVKDYFPEPVTVSWNSGALTSGVHTFPAVLQSSGLYSLSSVVTVPSSNFGTQTYTCNVDHKPSNTKVDKTVERKSCVECPPCPAPPVAGPSVFLFPPKPKDTLMISRTPEVTCVVVDVSHEDPEVQFNWYVDGVEVHNAKTKPREEQFNSTFRVVSVLTVVHQDWLNGKEYKCKVSNKGLPAPIEKTISKTKGQPREPQVYTLPPSREEMTKNQVSLTCLVKGFYPSDIAVEWESNGQPENNYKTTPPMLDSDGSFFLYSKLTVDKSRWQQGNVFSCSVMHEALHNHYTQKSLSLSPG
light: not shown
notes: anti-CD73; also called CD73.10-IgG2CS; CD73.10-Vh-hHC-IgG2-C219S
- Kd [3]: 8300 pM
- koff [3]: 0.0018 s⁻¹
- kon [3]: 220000 M⁻¹ s⁻¹
- % internalization, Calu6 [4]: 91%
- % internalization, H2030 [4]: 85%
- % internalization, H2228 [4]: 93%
- % internalization, HCC15 [4]: 91%
- T1/2 internalization, Calu6 [4]: 3 min
- T1/2 internalization, H2030 [4]: 3.3 min
- T1/2 internalization, H2228 [4]: 9.7 min
- T1/2 internalization, HCC15 [4]: 2.6 min
- Kd [5]: 6200 pM
- koff [5]: 0.0014 s⁻¹
- kon [5]: 220000 M⁻¹ s⁻¹
- EC50 of CD73 internalization, Calu6, 2 h [6]: 670 pM
- Ymax of CD73 internalization, Calu6, 2 h [6]: 99 % of 100 nM 11F11

B3: CD73.4-IgG2-C219S (antibody)
heavy: QVQLVESGGGVVQPGRSLRLSCAASGFTFSNYGMHWVRQAPGKGLEWVAVILYDGSNKYYPDSVKGRFTISRDNSKNTLYLQMNSLRAEDTAVYYCARGGSSWYPDSFDIWGQGTMVTVSSASTKGPSVFPLAPCSRSTSESTAALGCLVKDYFPEPVTVSWNSGALTSGVHTFPAVLQSSGLYSLSSVVTVPSSNFGTQTYTCNVDHKPSNTKVDKTVERKSCVECPPCPAPPVAGPSVFLFPPKPKDTLMISRTPEVTCVVVDVSHEDPEVQFNWYVDGVEVHNAKTKPREEQFNSTFRVVSVLTVVHQDWLNGKEYKCKVSNKGLPAPIEKTISKTKGQPREPQVYTLPPSREEMTKNQVSLTCLVKGFYPSDIAVEWESNGQPENNYKTTPPMLDSDGSFFLYSKLTVDKSRWQQGNVFSCSVMHEALHNHYTQKSLSLSPG
light: not shown
notes: anti-CD73; also called CD73.4-IgG2CS; CD73.4-IgG2.3
- UV % Peak1 <12.9 min [1]: 37%
- UV % Peak3 15.1-16.7 min [1]: 7.7%
- UV % Peak4 16.7-19.3 min (free mAb) [1]: 28.6%
- UV % Peak5 >19.3 min [1]: 2.9%
- T1/2 internalization, Calu6 [7]: 36 min
- T1/2 internalization, NCI-H292 [7]: 16.6 min
- Ymax internalization, Calu6 [7]: 75.6%
- Ymax internalization, NCI-H292 [7]: 78.4%
- T1/2 internalization, Calu6 [2]: 22.4 min and 21.8 min
- T1/2 internalization, NCI-H292 [2]: 17.2 min and 17.1 min
- % internalization, Calu6 [4]: 88%
- % internalization, H2030 [4]: 89%
- % internalization, H2228 [4]: 94%
- % internalization, HCC15 [4]: 94%
- T1/2 internalization, Calu6 [4]: 6.5 min
- T1/2 internalization, H2030 [4]: 3.7 min
- T1/2 internalization, H2228 [4]: 13.8 min
- T1/2 internalization, HCC15 [4]: 3.1 min
- Kd [5]: 550 pM

B4: 11F11 (antibody, human IgG2, kappa, V domains shown)
VH: QVQLVESGGGVVQPGRSLRLSCATSGFTFSNYGMHWVRQAPGKGLEWVAVILYDGSNKYYPDSVKGRFTISRDNSKNTLYLQMNSLRAEDTAVYYCARGGSSWYPDSFDIWGQGTMVTVSS
VL: DIQMTQSPSSLSASVGDRVTITCRASQGISSWLAWYQQKPEKAPKSLIYAASSLQSGVPSRFSGSGSGTDFTLTISSLQPEDFATYYCQQYNSYPLTFGGGTKVEIKR
notes: hybridoma derived anti-CD73 antibody, IgG2 constant region; also called 11F11(IgG2)
- Kd [3]: 560 pM
- koff [3]: 0.00016 s⁻¹
- kon [3]: 290000 M⁻¹ s⁻¹
- Kd [5]: 1600 pM
- koff [5]: 0.00042 s⁻¹
- kon [5]: 260000 M⁻¹ s⁻¹
- EC50 of CD73 internalization, Calu6, 2 h [6]: 580 pM
- Ymax of CD73 internalization, Calu6, 2 h [6]: 98 % of 100 nM 11F11
